Assay [1] deals with QL9/L^d complex on the surface of T2-L^d cells (UniProt Q60597). Kind of assay: radioligand binding.
The target in assay [2] is biotinylated L^d–QL9 complex (immobilised on the chip) (UniProt Q60597). Kind of assay: SPR. Background: SPR reads the build-up and loss of mass on a sensor chip optically.
Assay [3] has as its target 2C scTCR 102/55 double mutant (αS102A, βT55A) (mouse). Kind of assay: SPR.
For assay [4], the target named is 2C single-chain TCR (scTCR), wild-type, thioredoxin fusion (mouse). Put plainly: SPR.
Assay [5] addresses 2C scTCR 102/55 double mutant (αS102A, βT55A) (mouse). Kind of assay: SPR. This is another data set of the same source.

Like-named read-outs stand apart in the source and are kept apart here.

As a reminder, the Kd is the concentration at which binding is half-saturated. As to “2C scTCR 102/55 double mutant (αS102A, βT55A)”, the fold better than wild-type (IC50 ratio) in assay [1] is 2.3 fold. In assay [2], this substance had a Kd of 700 nM.

The substance “2C scTCR 102/56 double mutant (αS102A, βE56A)” registered a ΔΔG against wild-type in assay [1] of -0.32 kcal/mol.

Regarding 2C scTCR αS51P mutant (Vα3.2-like), the fold reduced against wild-type (IC50 ratio) in assay [1] stood at 15 fold.

The substance 2C scTCR αS102A mutant displayed a ΔΔG against wild-type in assay [1] of -0.31 kcal/mol.

In assay [1], 2C scTCR βE56A mutant showed a ΔΔG against wild-type of -0.11 kcal/mol.

2C scTCR βE56K mutant displayed a ΔΔG against wild-type in assay [1] of 1.06 kcal/mol.

As for 2C scTCR βT55A mutant, the ΔΔG against wild-type in assay [1] is -0.23 kcal/mol.

Regarding “2C single-chain TCR (scTCR), wild-type, thioredoxin fusion”, the Kd in assay [2] turned out to be 1900 nM.

In turn, “purified soluble L^d–QL9 complex (from UniProt Q60597 41-1023) (peptide-MHC)” came in with a Kd in assay [3] of 1200 nM. Also, the Kd in assay [4] was found to be 1900 nM. In assay [5], this substance gave a Kd of 2400 nM, a koff of wild-type over koff of 102/55 (fold faster) of 3.2 fold and a kon of wild-type over kon of 102/55 (fold faster) of 2.4 fold.

Values taken from PMC2192906.
